# Source: publication PMC9328939, “A Randomized Double‐Blind Placebo‐Controlled First‐In‐Human Phase 1 Trial of TransCon PTH in Healthy Adults” (Journal of Bone and Mineral Research, 2020)
# “And” between values parts separate entries of the source, which are not always exact repeats. Identical values can stand only once.
# Key:
# healthy adults [1] = experiment: Pharmacodynamics: fractional excretion of calcium (FECa); format: in vivo, human; details: despite mild hypercalcemia, normal limits approximately 0.4% to 2%
# Experimental: Twice‐daily 12‐hour urine samples (including calcium, phosphorus, magnesium, and creatinine) were also collected. In MAD cohorts, serum samples collected from TransCon PTH‐treated and placebo‐treated subjects predose and postdose on day 14 were analyzed for anti‐PTH binding antibodies by BioAgilytix (Durham, NC, USA) using an electrochemiluminescence bridging assay. Samples were analyzed using a multitiered approach consisting of a screening assay and a confirmatory assay.
# healthy adults [2] = experiment: Pharmacodynamics: 1,25-dihydroxyvitamin D; format: in vivo, human; details: healthy subjects; data not shown
# healthy adults [3] = experiment: Pharmacodynamics: serum magnesium (sMg); format: in vivo, human; details: MAD cohorts; data not shown
# healthy adults [4] = experiment: Safety and tolerability: adverse events in SAD and MAD cohorts; details: for Dizziness, light-headedness (including postural/orthostatic dizziness, syncope, presyncope) (%) / Tachycardia/palpitations (%): at least possibly related
# Experimental: Subjects attended a screening visit; those who met eligibility criteria were randomly assigned to a SAD or MAD cohort (n = 10/cohort; eight active and two placebo) and received a single or multiple dose(s) of TransCon PTH, respectively, via a syringe and 31G 8‐mm needle s.c. to the abdomen. […] Multiple TransCon PTH doses administered daily for 10 days ranged from 3.5 to 24 μg PTH(1‐34)/day. Throughout drug administration and for 4 days following the final dose, subjects remained housed for laboratory tests and safety monitoring.
# At screening, demographic information, medical history, and concomitant medications, vital signs with height and weight, hematology, blood chemistry (including sCa, sP, and sMg), intact endogenous PTH(1‐84), 1,25‐dihydroxyvitamin D, and urine samples were collected. In addition, a limited physical examination and electrocardiogram (ECG) were performed.
# Via regular vital sign checks, physical examinations, and safety laboratory tests, subjects were also monitored for adverse events (AEs) throughout the trial, including injection site reactions (erythema, ecchymosis, edema, pruritus, and pain).
# [5] = MAD cohorts administered TransCon PTH (n = 50)
# [6] = MAD, 3.5 μg/day s.c. x 10 days, n = 8, number of subjects (% of cohort)
# [7] = MAD, 3.5 μg/day x 10 days, n = 8, number of subjects (%)
# [8] = MAD, 7 μg/day s.c. x 10 days, n = 8, number of subjects (% of cohort)
# [9] = MAD, 7 μg/day x 10 days, n = 8, number of subjects (%)
# [10] = MAD, 12 μg/day s.c. x 10 days, n = 10, number of subjects (% of cohort)
# [11] = MAD, 16 μg/day s.c. x 10 days, n = 8, number of subjects (% of cohort)
# [12] = MAD, 16 μg/day x 10 days, n = 8, number of subjects (%)
# [13] = MAD, 20 μg/day s.c. x 10 days, n = 8, number of subjects (% of cohort)
# [14] = MAD, 20 μg/day x 10 days, n = 8, number of subjects (%)
# [15] = MAD, 24 μg/day s.c. x 10 days, n = 8, number of subjects (% of cohort)
# [16] = MAD, 24 μg/day x 10 days, n = 8, number of subjects (%)
# [17] = MAD, Total of all TransCon PTH doses (3.5 to 24 μg/day), n = 50, number of subjects (%)
# [18] = MAD, Total of all TransCon PTH doses, n = 50, number of subjects (%)
# [19] = SAD cohorts administered TransCon PTH (n = 56)
# [20] = SAD, Total of all TransCon PTH doses (3.5 to 124 μg), n = 56, number of subjects (%)
# [21] = SAD, Total of all TransCon PTH doses, n = 56, number of subjects (%)
# [22] = SAD, single s.c. 3.5 μg, n = 8, number of subjects (% of cohort)
substance,measurement,setting,value
"TransCon PTH: long-acting, essentially inactive prodrug: PTH(1-34) transiently bound to an inert 40 kDa mPEG carrier via a proprietary autocleaving linker",FECa (spot),"healthy adults [1]; MAD cohorts, daily doses x 10 days",remained essentially within normal limits
same,FECa,"healthy adults [1]; SAD cohorts, data not shown",remained essentially within normal limits
same,"1,25-dihydroxyvitamin D levels",healthy adults [2],did not change significantly
same,change in serum magnesium (sMg),healthy adults [3],nonsignificant increase
same,treatment-emergent AE: catheter site phlebitis,healthy adults [4]; [5],8%
same,treatment-emergent AE: dizziness,healthy adults [4]; [5],10%
same,treatment-emergent AE: headache,healthy adults [4]; [5],12%
same,treatment-emergent AE: musculoskeletal pain,healthy adults [4]; [5],6%
same,treatment-emergent AE: palpitations,healthy adults [4]; [5],8%
same,treatment-emergent AE: postural dizziness,healthy adults [4]; [5],6%
same,treatment-emergent AE: presyncope,healthy adults [4]; [5],6%
same,Any AE (%),healthy adults [4]; [6],6 (75.0) %
same,Any SAE (%),healthy adults [4]; [6],0 (0) %
same,Any drug-related AE (%),healthy adults [4]; [6],1 (12.5) %
same,Any moderate or severe AE (%),healthy adults [4]; [6],2 (25.0) %
same,"Dizziness, light-headedness (including postural/orthostatic dizziness, syncope, presyncope) (%)",healthy adults [4]; [7],1 (12.5) %
same,Tachycardia/palpitations (%),healthy adults [4]; [7],1 (12.5) %
same,Any AE (%),healthy adults [4]; [8],6 (75.0) %
same,Any SAE (%),healthy adults [4]; [8],0 (0) %
same,Any drug-related AE (%),healthy adults [4]; [8],2 (25.0) %
same,Any moderate or severe AE (%),healthy adults [4]; [8],3 (37.5) %
same,"Dizziness, light-headedness (including postural/orthostatic dizziness, syncope, presyncope) (%)",healthy adults [4]; [9],1 (12.5) %
same,Tachycardia/palpitations (%),healthy adults [4]; [9],0 (0.0) %
same,Any AE (%),healthy adults [4]; [10],7 (70.0) %
same,Any SAE (%),healthy adults [4]; [10],1 (10.0) %
same,Any drug-related AE (%),healthy adults [4]; [10],3 (30.0) %
same,Any moderate or severe AE (%),healthy adults [4]; [10],2 (20.0) %
same,Tachycardia/palpitations (%),"healthy adults [4]; MAD, 12 μg/day x 10 days, n = 10, number of subjects (%)",0 (0.0) %
same,Any AE (%),healthy adults [4]; [11],4 (50.0) %
same,Any SAE (%),healthy adults [4]; [11],0 (0) %
same,Any drug-related AE (%),healthy adults [4]; [11],2 (25.0) %
same,Any moderate or severe AE (%),healthy adults [4]; [11],1 (12.5) %
same,"Dizziness, light-headedness (including postural/orthostatic dizziness, syncope, presyncope) (%)",healthy adults [4]; [12],0 (0.0) %
same,Tachycardia/palpitations (%),healthy adults [4]; [12],0 (0.0) %
same,Any AE (%),healthy adults [4]; [13],3 (37.5) %
same,Any SAE (%),healthy adults [4]; [13],0 (0) %
same,Any drug-related AE (%),healthy adults [4]; [13],2 (25.0) %
same,Any moderate or severe AE (%),healthy adults [4]; [13],1 (12.5) %
same,"Dizziness, light-headedness (including postural/orthostatic dizziness, syncope, presyncope) (%)",healthy adults [4]; [14],0 (0.0) %
same,Tachycardia/palpitations (%),healthy adults [4]; [14],1 (12.5) %
same,subjects reporting vasodilatory or potentially vasodilatory AEs,"healthy adults [4]; MAD, 24 μg PTH(1-34)/day cohort, four of eight, placebo two of two (100%)",50%
same,albumin-adjusted sCa in a subject with symptomatic hypercalcemia,"healthy adults [4]; MAD, 24 μg PTH(1-34)/day, one of three males, discontinued dosing after the sixth dose",11.68 mg/dL
same,albumin-adjusted sCa in an asymptomatic subject on day 11,"healthy adults [4]; MAD, 24 μg PTH(1-34)/day, single subject",11.76 mg/dL
same,Any AE (%),healthy adults [4]; [15],7 (87.5) %
same,Any SAE (%),healthy adults [4]; [15],0 (0) %
same,Any drug-related AE (%),healthy adults [4]; [15],6 (75.0) %
same,Any moderate or severe AE (%),healthy adults [4]; [15],5 (62.5) %
same,"Dizziness, light-headedness (including postural/orthostatic dizziness, syncope, presyncope) (%)",healthy adults [4]; [16],2 (25.0) %
same,Tachycardia/palpitations (%),healthy adults [4]; [16],3 (37.5) %
same,Any AE (%),healthy adults [4]; [17],66% and 33 (66.0) %
same,Any SAE (%),healthy adults [4]; [17],1 (2.0) %
same,Any drug-related AE (%),healthy adults [4]; [17],16 (32.0) %
same,Any moderate or severe AE (%),healthy adults [4]; [17],14 (28.0) %
same,"Dizziness, light-headedness (including postural/orthostatic dizziness, syncope, presyncope) (%)",healthy adults [4]; [18],5 (10.0) %
same,Tachycardia/palpitations (%),healthy adults [4]; [18],5 (10.0) %
same,maximum tolerable dose (MTD),"healthy adults [4]; MAD, healthy volunteers, daily s.c. x 10 days",20 μg PTH(1-34)/day
same,discontinuation of the trial due to an AE,healthy adults [4]; SAD and MAD cohorts,No subjects
same,drug-related SAEs or severe AEs,healthy adults [4]; SAD and MAD cohorts,no drug‐related SAEs or severe AEs
same,"physical examination, ECG, standard safety laboratory tests",healthy adults [4]; SAD and MAD cohorts,no safety concerns were detected
same,tolerability,"healthy adults [4]; SAD and MAD cohorts, s.c.",generally well tolerated
same,treatment-emergent AE: dizziness,healthy adults [4]; [19],10.7%
same,treatment-emergent AE: headache,healthy adults [4]; [19],7.1%
same,treatment-emergent AE: postural dizziness,healthy adults [4]; [19],5.4%
same,maximum tolerable dose (MTD),"healthy adults [4]; SAD cohorts, up to the top dose of 124 μg PTH(1-34)",No MTD was observed
same,Any AE (%),healthy adults [4]; [20],41.1% and 23 (41.1) %
same,Any SAE (%),healthy adults [4]; [20],1 (1.8) %
same,Any drug-related AE (%),healthy adults [4]; [20],14 (25.0) %
same,Any moderate or severe AE (%),healthy adults [4]; [20],6 (10.7) %
same,"Dizziness, light-headedness (including postural/orthostatic dizziness, syncope, presyncope) (%)",healthy adults [4]; [21],4 (7.1) %
same,Tachycardia/palpitations (%),healthy adults [4]; [21],0 (0.0) %
same,Any AE (%),healthy adults [4]; [22],1 (12.5) %
same,Any SAE (%),healthy adults [4]; [22],0 (0) %
